These results are taken from publication PMC6817756.

In one data set the test system is ME-47. Briefly: fluorescence polarization. The note with it: FP: 10 mM Tris-HCl, 50 mM KCl, 1 mM EDTA, 5 mM MgCl2, 10 mM DTT, 2 nM DNA stock mixed 20 ul + 20 ul protein, 30 min, pH and temperature not stated; pulldown: …. For orientation: Fluorescence polarisation rises when a labelled molecule tumbles more slowly, as on binding a larger partner.
Data set [1] deals with Myc (human (endogenous in HCT116)) (UniProt P01106).
For data set [2], the target named is Omomyc (recombinant, bacterially expressed) (UniProt P01106). Briefly: SEC; size exclusion chromatography of purified Omomyc, data not shown. On the technique in general: In gel filtration, larger molecules generally elute earlier.
For data set [3] the target is unchanged. Briefly: native gel or EMSA; native gel electrophoresis of purified recombinant Omomyc (the legend of Fig. 1A speaks of SDS-PAGE under nonreduced and reduced conditions). (In general: In EMSA bound probe runs differently from free probe, usually more slowly.)
In data set [4] the target is MYC bHLH peptide (in MYC/MAX);MAX bHLH peptide (in MYC/MAX) (;, UniProt P01106;P61244 365-454;22-103, |). Briefly: fluorescence polarization; table heading: affinity; FP: 10 mM Tris-HCl, 50 mM KCl, 1 mM EDTA, 5 mM MgCl2, 10 mM DTT, 2 nM DNA stock mixed 20 ul + 20 ul protein, 30 min, pH and temperature not stated; pulldown: 50 mM Tris-HCl pH 7.5, 5% glycerol, 1.5 mM MgCl2, 150 mM NaCl, 1 mM DTT, IGEPAL, 4 C. The note with it: tags: ;, copies: 1;1, blunt.

The target in data set [5] is T1, Omomyc (synthetic or recombinant) (UniProt P01106 365-454, E425T;E432I;R438Q;R439N). The data set is described as above. The note with it: chain copies: 2, blunt.
The target of data set [6] is MYC bHLH peptide (MYC/MYC) (UniProt P01106 365-454). The description is as above. To be noted: chain copies: 2, blunt.
Data set [7] deals with T2, MAX bHLH peptide (MAX/MAX) (UniProt P61244 22-103). Briefly: fluorescence polarization; text: fails to bind; FP: 10 mM Tris-HCl, 50 mM KCl, 1 mM EDTA, 5 mM MgCl2, 10 mM DTT, 2 nM DNA stock mixed 20 ul + 20 ul protein, 30 min, pH and temperature not stated; pulldown: 50 mM Tris-HCl pH 7.5, 5% glycerol, 1.5 mM MgCl2, 150 mM NaCl, 1 mM DTT, IGEPAL, 4 C. To be noted: chain copies: 2; label: 5'-FAM; blunt.

Data set [8] deals with T2, MAX bHLH peptide (MAX/MAX). Briefly: fluorescence polarization; table heading: affinity; FP: 10 mM Tris-HCl, 50 mM KCl, 1 mM EDTA, 5 mM MgCl2, 10 mM DTT, 2 nM DNA stock mixed 20 ul + 20 ul protein, 30 min, pH and temperature not stated; pulldown: 50 mM Tris-HCl pH 7.5, 5% glycerol, 1.5 mM MgCl2, 150 mM NaCl, 1 mM DTT, IGEPAL, 4 C. The note with it: chain copies: 2; blunt.

Data set [9] has as its target T1, Omomyc (synthetic or recombinant). Briefly: fluorescence polarization; synthetic Omomyc; FP: 10 mM Tris-HCl, 50 mM KCl, 1 mM EDTA, 5 mM MgCl2, 10 mM DTT, 2 nM DNA stock mixed 20 ul + 20 ul protein, 30 min, pH and temperature not stated; pulldown: 50 mM Tris-HCl pH 7.5, 5% glycerol, 1.5 mM MgCl2, 150 mM NaCl, 1 mM DTT, IGEPAL, 4 C. The note with it: chain copies: 2; blunt.

In general, Kd refers to the equilibrium constant for the complex coming apart. “CCCCCACCACGTGGTGCCTGA (double strand) [E box DNA (FP probe)]”: the Kd with ME-47 stood at 117 nM.
Consider “CCCCCACCACGCGGTGCCTGA (double strand) [VEGFA-2 E box]”, for which, in the data set on ME-47, the Kd is 3110 nM.
The same measure, in the same setting: then “CCCCCACCACCTGGTGCCTGA (double strand) [VEGFA-1 E box]”, with 1080 nM.
In general, stoichiometry N refers to a count of units in the complex or per binding partner. As to “Omomyc (recombinant, bacterially expressed) (from UniProt P01106 369-421) (domain or fragment)”, the cellular thermal shift assay (CETSA) in Ramos cell lysates with 20 μM Omomyc: change in the aggregation temperature (Tagg) of Myc (destabilisation) in data set [1] was 6 °C. For the same molecule, the cellular thermal shift assay (CETSA), isothermal dose-response fingerprint at 54°C in Ramos cell lysates: EC50 of Omomyc for thermal destabilisation of Myc in data set [1] was determined as 16000 nM. Also, the stoichiometry N in data set [2] and in data set [3] was 2 throughout.

B1: VEGFA-1 E box (dsDNA)
DNA 1: CCCCCACCACCTGGTGCCTGA
DNA 2: TCAGGCACCAGGTGGTGGGGG
For the molecule B1, the Kd in [4] (label: 5'-FAM) came out at 397 nM; in data set [5] (label: 5'-FAM) it was 103 nM; in [6] (label: 5'-FAM), 140 nM; in [7], 3390 nM.

B2: E box DNA (FP probe) (dsDNA)
DNA 1: CCCCCACCACGTGGTGCCTGA
DNA 2: TCAGGCACCACGTGGTGGGGG
For the molecule B2, the Kd was 71.4 nM in data set [4]; 258 nM in data set [8]; 107 nM in [5]; 159 nM in [6]; approximately 22 nM in data set [9].

B3: VEGFA-2 E box (dsDNA)
DNA 1: CCCCCACCACGCGGTGCCTGA
DNA 2: TCAGGCACCGCGTGGTGGGGG
Regarding B3, the Kd came to 451 nM in data set [4] (label: 5'-FAM), 99.2 nM in data set [5] (label: 5'-FAM), 111 nM in data set [6] (label: 5'-FAM) and 2020 nM in [7].
